Measured values as given in US8361965B2, “Recombinant chimeric protein of neutrophil inhibitory factor and hirugen, and pharmaceutical composition thereof” (Lunan Pharmaceutical Group Corporation, priority 2008, dated 2013).
Values joined by “and” are separate entries in the source; they are usually repeats but may differ in a detail not shown here. Equal values may be shown once. “Also recorded” adds a separate entry of the source. Read-outs that look alike come from different tables or passages of the source.

What was measured:
[1] = test system: cerebral ischemia in rats subjected to middle cerebral artery occlusion; assay type: in vivo, Wistar rats; details: for behavioral score: full score 11
blood coagulation system = assay: effects on blood coagulation system of New Zealand rabbits in vivo (APTT, PT, TT); set-up: species or system New Zealand rabbit; PT: unit not given beside the values; APTT / TT: unit not given here
Method: Medicaments were administrated via intravenous injection from marginal ear vein, and 1.8 ml blood was harvested from marginal ear veins at the time of before administration (0 min), and 10 min, 30 min, 60 min, 120 min and 240 min after administration, respectively (the time for injecting is 2 min). 3.2% sodium citrate (9:1) was added for anticoagulation and then mixed and centrifuged at 3000 rpm/min for 3 min. The plasma was send to Department of Clinical Laboratory, Southwest Hospital for determining blood coagulation indexes (APTT, TT and PT) with a full automatic coagulation analyzer and the difference before and after administration was obtained by comparison.

[2] = test system: focal cerebral ischemia-reperfusion injury in rats; assay type: in vivo, Sprague-Dawley (SD) rats
[3] = TNHH 3.375 mg/kg i.v., 0 min (before administration)
[4] = TNHH 6.675 mg/kg i.v., 0 min (before administration)
[5] = dose in great excess of the effective dose
[6] = M-1, TNHH 2.25 mg/kg i.v. (middle dose)
[7] = M-1, TNHH 6.75 mg/kg i.v. (high dose)
[8] = M-2, TNHH 2.25 mg/kg i.v. (middle dose)
[9] = M-2, TNHH 6.75 mg/kg i.v. (high dose)

B1: TNHH: recombinant chimeric protein of neutrophil inhibitory factor and hirugen, Met-NIF-GGGGG-FPRPGSGG-Hirugen (SEQ ID NO: 3), expressed in E. coli (protein)
chain: MNEHNLRCPQNGTEMPGFNDSIRLQFLAMHNGYRSKLALGHISITEESESDDDDDFGFLPDFAPRASKMRYLEYDCEAEKSAYMSARNCSDSSSPPEGYDENKYIFENSNNISEAALKAMISWAKEAFNLNKTKEGEGVLYRSNHDISNFANLAWDAREKFGCAVVNCPLGEIDDETNHDGETYATTIHVVCHYPKINKTEGQPIYKVGTPCDDCSEYTKKADNTTSADPVCIPDDGVCFIGSKADYDSKEFYRFRELGGGGGFPRPGSGGNGDFEEIPEEYL
modifications: N-terminal Met
Q: What does the source list for B1?
A: behavioral score ([1]; 2 mg/kg bid caudal vein, 4 h): 6.5 ± 1.0; behavioral score ([1]; 2 mg/kg bid caudal vein, 8 h): 6.2 ± 1.2; behavioral score ([1]; 2 mg/kg bid caudal vein, 24 h): 5.8 ± 1.2; behavioral score ([1]; 2 mg/kg bid caudal vein, 48 h): 5.3 ± 0.5; behavioral score ([1]; 2 mg/kg bid caudal vein, 72 h): 5.0 ± 0.6; pathological section of brain (cerebral cortex nerve cells) ([1]; 2 mg/kg bid caudal vein, HE, compared with model group): least pathological changes; also recorded: more regular structural arrangements, a portion of deeply stained nucleus, and some cytoplasmic shrinkage or disappearance; Cerebral infarction volume (%) ([1]; 72 h): 23.2 ± 5.4 %; APTT (blood coagulation system; [3]): 36.45 ± 6.60; PT (blood coagulation system; [3]): 6.78 ± 0.28; TT (blood coagulation system; [3]): 15.57 ± 1.09; APTT (blood coagulation system; TNHH 3.375 mg/kg i.v., 10 min): 37.38 ± 6.35; PT (blood coagulation system; TNHH 3.375 mg/kg i.v., 10 min): 6.90 ± 0.21; TT (blood coagulation system; TNHH 3.375 mg/kg i.v., 10 min): 23.23 ± 2.47; APTT (blood coagulation system; TNHH 3.375 mg/kg i.v., 30 min): 31.97 ± 2.11; PT (blood coagulation system; TNHH 3.375 mg/kg i.v., 30 min): 6.85 ± 0.23; TT (blood coagulation system; TNHH 3.375 mg/kg i.v., 30 min): 16.13 ± 1.31; APTT (blood coagulation system; TNHH 3.375 mg/kg i.v., 60 min): 31.93 ± 2.39; PT (blood coagulation system; TNHH 3.375 mg/kg i.v., 60 min): 6.78 ± 0.22; TT (blood coagulation system; TNHH 3.375 mg/kg i.v., 60 min): 14.75 ± 1.44; APTT (blood coagulation system; TNHH 3.375 mg/kg i.v., 120 min): 30.52 ± 6.86; PT (blood coagulation system; TNHH 3.375 mg/kg i.v., 120 min): 6.87 ± 0.32; TT (blood coagulation system; TNHH 3.375 mg/kg i.v., 120 min): 14.02 ± 0.79; APTT (blood coagulation system; TNHH 3.375 mg/kg i.v., 240 min): 35.65 ± 9.36; PT (blood coagulation system; TNHH 3.375 mg/kg i.v., 240 min): 7.02 ± 0.24; TT (blood coagulation system; TNHH 3.375 mg/kg i.v., 240 min): 14.65 ± 1.14; APTT (blood coagulation system; [4]): 44.25 ± 5.39; PT (blood coagulation system; [4]): 6.88 ± 0.17; TT (blood coagulation system; [4]): 15.97 ± 1.42; APTT (blood coagulation system; TNHH 6.675 mg/kg i.v., 10 min): 39.87 ± 4.98; PT (blood coagulation system; TNHH 6.675 mg/kg i.v., 10 min): 7.17 ± 0.36; TT (blood coagulation system; TNHH 6.675 mg/kg i.v., 10 min): 33.57 ± 4.47; APTT (blood coagulation system; TNHH 6.675 mg/kg i.v., 30 min): 37.98 ± 4.77; PT (blood coagulation system; TNHH 6.675 mg/kg i.v., 30 min): 7.12 ± 0.47; TT (blood coagulation system; TNHH 6.675 mg/kg i.v., 30 min): 21.63 ± 1.71; APTT (blood coagulation system; TNHH 6.675 mg/kg i.v., 60 min): 36.17 ± 6.76; PT (blood coagulation system; TNHH 6.675 mg/kg i.v., 60 min): 7.17 ± 0.40; TT (blood coagulation system; TNHH 6.675 mg/kg i.v., 60 min): 15.55 ± 0.95; APTT (blood coagulation system; TNHH 6.675 mg/kg i.v., 120 min): 38.95 ± 8.85; PT (blood coagulation system; TNHH 6.675 mg/kg i.v., 120 min): 7.62 ± 0.64; TT (blood coagulation system; TNHH 6.675 mg/kg i.v., 120 min): 15.00 ± 1.51; APTT (blood coagulation system; TNHH 6.675 mg/kg i.v., 240 min): 38.03 ± 9.11; PT (blood coagulation system; TNHH 6.675 mg/kg i.v., 240 min): 7.97 ± 0.99; TT (blood coagulation system; TNHH 6.675 mg/kg i.v., 240 min): 13.33 ± 0.73; extension time of PT (blood coagulation system; TNHH 6.675 mg/kg i.v., vs 0 min): less than 3 seconds; effects on the endogenous blood coagulation pathway (blood coagulation system; [5]): no effects; effects on the exogenous blood coagulation pathway and fibrinolytic system (blood coagulation system; [5]): some effects; Cerebral infarction volume (%), based on the total volume of the brain ([2]; M-1 (occlusion 1 h, reperfusion 48 h), TNHH 0.75 mg/kg i.v. (low dose)): 19.93±12.40%; nervous symptom score ([2]; M-1 (occlusion 1 h, reperfusion 48 h), TNHH 0.75 mg/kg i.v., 2 h): 1.46 ± 0.58; Decrease in percentage (%), compared with corresponding model group ([2]; M-1, TNHH 0.75 mg/kg i.v. (low dose)): 10.54%; nervous symptom score ([2]; M-1, TNHH 0.75 mg/kg i.v., 6 h): 1.42 ± 0.60; nervous symptom score ([2]; M-1, TNHH 0.75 mg/kg i.v., 12 h): 1.42 ± 0.60; nervous symptom score ([2]; M-1, TNHH 0.75 mg/kg i.v., 24 h): 1.40 ± 0.43; nervous symptom score ([2]; M-1, TNHH 0.75 mg/kg i.v., 48 h): 1.36 ± 0.62; Cerebral infarction volume (%), based on the total volume of the brain [2, 6]: 19.41±11.74%; Decrease in percentage (%), compared with corresponding model group [2, 6]: 12.88%; nervous symptom score ([2]; M-1, TNHH 2.25 mg/kg i.v., 2 h): 1.47 ± 0.92; nervous symptom score ([2]; M-1, TNHH 2.25 mg/kg i.v., 6 h): 1.47 ± 0.92; nervous symptom score ([2]; M-1, TNHH 2.25 mg/kg i.v., 12 h): 1.37 ± 0.92; nervous symptom score ([2]; M-1, TNHH 2.25 mg/kg i.v., 24 h): 1.38 ± 0.41; nervous symptom score ([2]; M-1, TNHH 2.25 mg/kg i.v., 48 h): 1.30 ± 0.76; Cerebral infarction volume (%), based on the total volume of the brain [2, 7]: 12.89±8.94%; Decrease in percentage (%), compared with corresponding model group [2, 7]: 42.14% and 42.15** %; nervous symptom score ([2]; M-1, TNHH 6.75 mg/kg i.v., 2 h): 1.50 ± 0.58; nervous symptom score ([2]; M-1, TNHH 6.75 mg/kg i.v., 6 h): 1.50 ± 0.68; nervous symptom score ([2]; M-1, TNHH 6.75 mg/kg i.v., 12 h): 1.39 ± 0.65; nervous symptom score ([2]; M-1, TNHH 6.75 mg/kg i.v., 24 h): 1.20 ± 0.36; nervous symptom score ([2]; M-1, TNHH 6.75 mg/kg i.v., 48 h): 1.00 ± 0.42; Cerebral infarction volume (%), based on the total volume of the brain ([2]; M-2 (occlusion 2 h, reperfusion 48 h), TNHH 0.75 mg/kg i.v. (low dose)): 27.52±17.63% and 27.52 ± 7.63%; nervous symptom score ([2]; M-2 (occlusion 2 h, reperfusion 48 h), TNHH 0.75 mg/kg i.v., 2 h): 1.94 ± 0.56; Decrease in percentage (%), compared with corresponding model group ([2]; M-2, TNHH 0.75 mg/kg i.v. (low dose)): 3.63%; nervous symptom score ([2]; M-2, TNHH 0.75 mg/kg i.v., 6 h): 1.94 ± 0.56; nervous symptom score ([2]; M-2, TNHH 0.75 mg/kg i.v., 12 h): 1.94 ± 0.73; nervous symptom score ([2]; M-2, TNHH 0.75 mg/kg i.v., 24 h): 1.88 ± 0.64; nervous symptom score ([2]; M-2, TNHH 0.75 mg/kg i.v., 48 h): 1.86 ± 0.77; Cerebral infarction volume (%), based on the total volume of the brain [2, 8]: 26.07±8.06%; Decrease in percentage (%), compared with corresponding model group [2, 8]: 7.42%; nervous symptom score ([2]; M-2, TNHH 2.25 mg/kg i.v., 2 h): 1.81 ± 0.92; nervous symptom score ([2]; M-2, TNHH 2.25 mg/kg i.v., 6 h): 1.80 ± 0.92; nervous symptom score ([2]; M-2, TNHH 2.25 mg/kg i.v., 12 h): 1.79 ± 0.92; nervous symptom score ([2]; M-2, TNHH 2.25 mg/kg i.v., 24 h): 1.68 ± 0.41; nervous symptom score ([2]; M-2, TNHH 2.25 mg/kg i.v., 48 h): 1.67 ± 0.76; Cerebral infarction volume (%), based on the total volume of the brain [2, 9]: 19.72±8.90% and 19.72 ± 5.90%; Decrease in percentage (%), compared with corresponding model group [2, 9]: 29.97%; nervous symptom score ([2]; M-2, TNHH 6.75 mg/kg i.v., 2 h): 1.75 ± 0.52; nervous symptom score ([2]; M-2, TNHH 6.75 mg/kg i.v., 6 h): 1.75 ± 0.27; nervous symptom score ([2]; M-2, TNHH 6.75 mg/kg i.v., 12 h): 1.50 ± 0.45; nervous symptom score ([2]; M-2, TNHH 6.75 mg/kg i.v., 24 h): 1.37 ± 0.52; nervous symptom score ([2]; M-2, TNHH 6.75 mg/kg i.v., 48 h): 1.22 ± 0.38
